Test results from patent publication US20110195911A1, “SYNTHETIC ANALOGS OF THE JUXTAMEMBRANE DOMAIN OF IGF1R AND USES THEREOF” (THE UNITED STATES OF AMERICA,AS REPRESENTED BY THE …, priority 2008, published 2011).
The star is where a group is joined. Palmitoyl = CCCCCCCCCCCCCCCC(=O)*

Each binder was assayed against Insulin-like growth factor 1 receptor (IGF1R) (UniProt P08069 31-1367, limits assumed) (assay: cell-based or functional assay).
Chain of Insulin-like growth factor 1 receptor (IGF1R) (P08069 31-1367 limits assumed): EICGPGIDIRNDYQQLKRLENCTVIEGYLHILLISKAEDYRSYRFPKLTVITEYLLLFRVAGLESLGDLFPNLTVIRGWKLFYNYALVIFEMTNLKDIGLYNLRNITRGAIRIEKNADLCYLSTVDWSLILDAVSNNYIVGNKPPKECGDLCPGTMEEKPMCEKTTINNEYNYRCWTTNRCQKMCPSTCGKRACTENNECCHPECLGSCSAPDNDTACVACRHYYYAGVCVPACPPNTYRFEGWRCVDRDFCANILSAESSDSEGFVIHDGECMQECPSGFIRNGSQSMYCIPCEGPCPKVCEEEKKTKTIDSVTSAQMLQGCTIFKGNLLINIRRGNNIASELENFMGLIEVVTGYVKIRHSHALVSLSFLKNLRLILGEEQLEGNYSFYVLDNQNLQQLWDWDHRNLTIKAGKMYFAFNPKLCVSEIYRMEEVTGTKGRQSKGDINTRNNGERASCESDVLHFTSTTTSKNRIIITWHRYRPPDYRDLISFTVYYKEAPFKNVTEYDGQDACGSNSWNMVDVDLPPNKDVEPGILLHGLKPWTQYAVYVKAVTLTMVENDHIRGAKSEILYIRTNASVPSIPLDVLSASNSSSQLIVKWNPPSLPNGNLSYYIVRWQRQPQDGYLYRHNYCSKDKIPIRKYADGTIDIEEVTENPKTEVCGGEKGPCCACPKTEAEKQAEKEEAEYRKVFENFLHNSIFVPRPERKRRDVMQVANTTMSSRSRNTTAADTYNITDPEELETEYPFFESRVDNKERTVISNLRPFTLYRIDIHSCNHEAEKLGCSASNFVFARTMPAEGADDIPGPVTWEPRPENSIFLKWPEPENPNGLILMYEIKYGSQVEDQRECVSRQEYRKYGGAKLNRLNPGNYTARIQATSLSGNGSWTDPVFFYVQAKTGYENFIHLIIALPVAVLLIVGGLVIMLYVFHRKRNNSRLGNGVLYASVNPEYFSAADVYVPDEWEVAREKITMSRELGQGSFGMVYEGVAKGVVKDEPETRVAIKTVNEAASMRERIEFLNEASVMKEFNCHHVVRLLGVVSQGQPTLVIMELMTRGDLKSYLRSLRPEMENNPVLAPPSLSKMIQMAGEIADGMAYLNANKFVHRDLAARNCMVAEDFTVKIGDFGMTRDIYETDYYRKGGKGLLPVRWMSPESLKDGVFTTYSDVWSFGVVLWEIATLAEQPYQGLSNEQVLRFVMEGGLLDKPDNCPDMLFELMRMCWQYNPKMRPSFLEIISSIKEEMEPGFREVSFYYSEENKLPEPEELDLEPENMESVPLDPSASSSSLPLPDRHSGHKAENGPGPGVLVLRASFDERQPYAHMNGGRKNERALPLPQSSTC

GI50 (µM), MTT assay, MCF-7 cells | TGI (µM), MTT assay, MCF-7 cells | Binder
0.25 µM | 1.05 µM | Palmitoyl-VHRKRNNSRLGNGVLYASV-NH2 (SMILES CCCCCCCCCCCCCCCC(=O)N[C@H](C(=O)N[C@@H](Cc1c[nH]cn1)C(=O)N[C@@H](CCCNC(=N)N)C(=O)N[C@@H](CCCCN)C(=O)N[C@@H](CCCNC(=N)N)C(=O)N[C@@H](CC(N)=O)C(=O)N[C@@H](CC(N)=O)C(=O)N[C@@H](CO)C(=O)N[C@@H](CCCNC(=N)N)C(=O)N[C@@H](CC(C)C)C(=O)NCC(=O)N[C@@H](CC(N)=O)C(=O)NCC(=O)N[C@H](C(=O)N[C@@H](CC(C)C)C(=O)N[C@@H](Cc1ccc(O)cc1)C(=O)N[C@@H](C)C(=O)N[C@@H](CO)C(=O)N[C@H](C(N)=O)C(C)C)C(C)C)C(C)C) [peptide 6 (Pal-VHRKRNNSRLGNGVLYASV-NH2)]
0.1 µM | 0.4 µM | Palmitoyl-RNNSRLGNGVLYASVN-NH2 (SMILES CCCCCCCCCCCCCCCC(=O)N[C@@H](CCCNC(=N)N)C(=O)N[C@@H](CC(N)=O)C(=O)N[C@@H](CC(N)=O)C(=O)N[C@@H](CO)C(=O)N[C@@H](CCCNC(=N)N)C(=O)N[C@@H](CC(C)C)C(=O)NCC(=O)N[C@@H](CC(N)=O)C(=O)NCC(=O)N[C@H](C(=O)N[C@@H](CC(C)C)C(=O)N[C@@H](Cc1ccc(O)cc1)C(=O)N[C@@H](C)C(=O)N[C@@H](CO)C(=O)N[C@H](C(=O)N[C@@H](CC(N)=O)C(N)=O)C(C)C)C(C)C) [peptide 14 (Pal-RNNSRLGNGVLYASVN-NH2)]
1.3 µM | > 5 µM | Palmitoyl-HRKRNNSRLG-NH2 (SMILES CCCCCCCCCCCCCCCC(=O)N[C@@H](Cc1c[nH]cn1)C(=O)N[C@@H](CCCNC(=N)N)C(=O)N[C@@H](CCCCN)C(=O)N[C@@H](CCCNC(=N)N)C(=O)N[C@@H](CC(N)=O)C(=O)N[C@@H](CC(N)=O)C(=O)N[C@@H](CO)C(=O)N[C@@H](CCCNC(=N)N)C(=O)N[C@@H](CC(C)C)C(=O)NCC(N)=O) [peptide 2 (Pal-HRKRNNSRLG-NH2)]
0.1 µM | > 5 µM | Palmitoyl-HRKRNNSRLGNGVLYASVNP-NH2 (SMILES CCCCCCCCCCCCCCCC(=O)N[C@@H](Cc1c[nH]cn1)C(=O)N[C@@H](CCCNC(=N)N)C(=O)N[C@@H](CCCCN)C(=O)N[C@@H](CCCNC(=N)N)C(=O)N[C@@H](CC(N)=O)C(=O)N[C@@H](CC(N)=O)C(=O)N[C@@H](CO)C(=O)N[C@@H](CCCNC(=N)N)C(=O)N[C@@H](CC(C)C)C(=O)NCC(=O)N[C@@H](CC(N)=O)C(=O)NCC(=O)N[C@H](C(=O)N[C@@H](CC(C)C)C(=O)N[C@@H](Cc1ccc(O)cc1)C(=O)N[C@@H](C)C(=O)N[C@@H](CO)C(=O)N[C@H](C(=O)N[C@@H](CC(N)=O)C(=O)N1CCC[C@H]1C(N)=O)C(C)C)C(C)C) [peptide 23 (Pal-HRKRNNSRLGNGVLYASVNP-NH2)]
2.5 µM | > 5 µM | Palmitoyl-HRKRNNSRLGNGV-NH2 (SMILES CCCCCCCCCCCCCCCC(=O)N[C@@H](Cc1c[nH]cn1)C(=O)N[C@@H](CCCNC(=N)N)C(=O)N[C@@H](CCCCN)C(=O)N[C@@H](CCCNC(=N)N)C(=O)N[C@@H](CC(N)=O)C(=O)N[C@@H](CC(N)=O)C(=O)N[C@@H](CO)C(=O)N[C@@H](CCCNC(=N)N)C(=O)N[C@@H](CC(C)C)C(=O)NCC(=O)N[C@@H](CC(N)=O)C(=O)NCC(=O)N[C@H](C(N)=O)C(C)C) [peptide 11 (Pal-HRKRNNSRLGNGV-NH2)]
1.4 µM | > 5 µM | Palmitoyl-HRKRNNSRLGNGVLYA-NH2 (SMILES CCCCCCCCCCCCCCCC(=O)N[C@@H](Cc1c[nH]cn1)C(=O)N[C@@H](CCCNC(=N)N)C(=O)N[C@@H](CCCCN)C(=O)N[C@@H](CCCNC(=N)N)C(=O)N[C@@H](CC(N)=O)C(=O)N[C@@H](CC(N)=O)C(=O)N[C@@H](CO)C(=O)N[C@@H](CCCNC(=N)N)C(=O)N[C@@H](CC(C)C)C(=O)NCC(=O)N[C@@H](CC(N)=O)C(=O)NCC(=O)N[C@H](C(=O)N[C@@H](CC(C)C)C(=O)N[C@@H](Cc1ccc(O)cc1)C(=O)N[C@@H](C)C(N)=O)C(C)C) [peptide 8 (Pal-HRKRNNSRLGNGVLYA-NH2)]
1.65 µM | > 5 µM | Palmitoyl-HRKRNNSRLGNGVLY-NH2 (SMILES CCCCCCCCCCCCCCCC(=O)N[C@@H](Cc1c[nH]cn1)C(=O)N[C@@H](CCCNC(=N)N)C(=O)N[C@@H](CCCCN)C(=O)N[C@@H](CCCNC(=N)N)C(=O)N[C@@H](CC(N)=O)C(=O)N[C@@H](CC(N)=O)C(=O)N[C@@H](CO)C(=O)N[C@@H](CCCNC(=N)N)C(=O)N[C@@H](CC(C)C)C(=O)NCC(=O)N[C@@H](CC(N)=O)C(=O)NCC(=O)N[C@H](C(=O)N[C@@H](CC(C)C)C(=O)N[C@@H](Cc1ccc(O)cc1)C(N)=O)C(C)C) [peptide 9 (Pal-HRKRNNSRLGNGVLY-NH2)]
1.8 µM | > 5 µM | Palmitoyl-HRKRNNSRLGNG-NH2 (SMILES CCCCCCCCCCCCCCCC(=O)N[C@@H](Cc1c[nH]cn1)C(=O)N[C@@H](CCCNC(=N)N)C(=O)N[C@@H](CCCCN)C(=O)N[C@@H](CCCNC(=N)N)C(=O)N[C@@H](CC(N)=O)C(=O)N[C@@H](CC(N)=O)C(=O)N[C@@H](CO)C(=O)N[C@@H](CCCNC(=N)N)C(=O)N[C@@H](CC(C)C)C(=O)NCC(=O)N[C@@H](CC(N)=O)C(=O)NCC(N)=O) [peptide 1 (Pal-HRKRNNSRLGNG-NH2)]
1.45 µM | 4.1 µM | Palmitoyl-HRKRNNSRLGNGVLYAS-NH2 (SMILES CCCCCCCCCCCCCCCC(=O)N[C@@H](Cc1c[nH]cn1)C(=O)N[C@@H](CCCNC(=N)N)C(=O)N[C@@H](CCCCN)C(=O)N[C@@H](CCCNC(=N)N)C(=O)N[C@@H](CC(N)=O)C(=O)N[C@@H](CC(N)=O)C(=O)N[C@@H](CO)C(=O)N[C@@H](CCCNC(=N)N)C(=O)N[C@@H](CC(C)C)C(=O)NCC(=O)N[C@@H](CC(N)=O)C(=O)NCC(=O)N[C@H](C(=O)N[C@@H](CC(C)C)C(=O)N[C@@H](Cc1ccc(O)cc1)C(=O)N[C@@H](C)C(=O)N[C@@H](CO)C(N)=O)C(C)C) [peptide 7 (Pal-HRKRNNSRLGNGVLYAS-NH2)]
0.1 µM | 1.1 µM | Palmitoyl-VFHRKRNNSRLGNGVLYASVN-NH2 (SMILES CCCCCCCCCCCCCCCC(=O)N[C@H](C(=O)N[C@@H](Cc1ccccc1)C(=O)N[C@@H](Cc1c[nH]cn1)C(=O)N[C@@H](CCCNC(=N)N)C(=O)N[C@@H](CCCCN)C(=O)N[C@@H](CCCNC(=N)N)C(=O)N[C@@H](CC(N)=O)C(=O)N[C@@H](CC(N)=O)C(=O)N[C@@H](CO)C(=O)N[C@@H](CCCNC(=N)N)C(=O)N[C@@H](CC(C)C)C(=O)NCC(=O)N[C@@H](CC(N)=O)C(=O)NCC(=O)N[C@H](C(=O)N[C@@H](CC(C)C)C(=O)N[C@@H](Cc1ccc(O)cc1)C(=O)N[C@@H](C)C(=O)N[C@@H](CO)C(=O)N[C@H](C(=O)N[C@@H](CC(N)=O)C(N)=O)C(C)C)C(C)C)C(C)C) [peptide 24 (Pal-VFHRKRNNSRLGNGVLYASVN-NH2)]
0.08 µM | 0.5 µM | Palmitoyl-KRNNSRLGNGVLYASVN-NH2 (SMILES CCCCCCCCCCCCCCCC(=O)N[C@@H](CCCCN)C(=O)N[C@@H](CCCNC(=N)N)C(=O)N[C@@H](CC(N)=O)C(=O)N[C@@H](CC(N)=O)C(=O)N[C@@H](CO)C(=O)N[C@@H](CCCNC(=N)N)C(=O)N[C@@H](CC(C)C)C(=O)NCC(=O)N[C@@H](CC(N)=O)C(=O)NCC(=O)N[C@H](C(=O)N[C@@H](CC(C)C)C(=O)N[C@@H](Cc1ccc(O)cc1)C(=O)N[C@@H](C)C(=O)N[C@@H](CO)C(=O)N[C@H](C(=O)N[C@@H](CC(N)=O)C(N)=O)C(C)C)C(C)C) [peptide 13 (Pal-KRNNSRLGNGVLYASVN-NH2)]
1.8 µM | > 5 µM | Palmitoyl-HRKRNNSRLGNGVL-NH2 (SMILES CCCCCCCCCCCCCCCC(=O)N[C@@H](Cc1c[nH]cn1)C(=O)N[C@@H](CCCNC(=N)N)C(=O)N[C@@H](CCCCN)C(=O)N[C@@H](CCCNC(=N)N)C(=O)N[C@@H](CC(N)=O)C(=O)N[C@@H](CC(N)=O)C(=O)N[C@@H](CO)C(=O)N[C@@H](CCCNC(=N)N)C(=O)N[C@@H](CC(C)C)C(=O)NCC(=O)N[C@@H](CC(N)=O)C(=O)NCC(=O)N[C@H](C(=O)N[C@@H](CC(C)C)C(N)=O)C(C)C) [peptide 10 (Pal-HRKRNNSRLGNGVL-NH2)]
0.45 µM | 1.45 µM | Palmitoyl-HRKRNNSRLGNGVLYASV-NH2 (SMILES CCCCCCCCCCCCCCCC(=O)N[C@@H](Cc1c[nH]cn1)C(=O)N[C@@H](CCCNC(=N)N)C(=O)N[C@@H](CCCCN)C(=O)N[C@@H](CCCNC(=N)N)C(=O)N[C@@H](CC(N)=O)C(=O)N[C@@H](CC(N)=O)C(=O)N[C@@H](CO)C(=O)N[C@@H](CCCNC(=N)N)C(=O)N[C@@H](CC(C)C)C(=O)NCC(=O)N[C@@H](CC(N)=O)C(=O)NCC(=O)N[C@H](C(=O)N[C@@H](CC(C)C)C(=O)N[C@@H](Cc1ccc(O)cc1)C(=O)N[C@@H](C)C(=O)N[C@@H](CO)C(=O)N[C@H](C(N)=O)C(C)C)C(C)C) [peptide 5 (Pal-HRKRNNSRLGNGVLYASV-NH2)]
1.2 µM | 2.7 µM | Palmitoyl-RKRNNSRLGNGVLYASVN-NH2 (SMILES CCCCCCCCCCCCCCCC(=O)N[C@@H](CCCNC(=N)N)C(=O)N[C@@H](CCCCN)C(=O)N[C@@H](CCCNC(=N)N)C(=O)N[C@@H](CC(N)=O)C(=O)N[C@@H](CC(N)=O)C(=O)N[C@@H](CO)C(=O)N[C@@H](CCCNC(=N)N)C(=O)N[C@@H](CC(C)C)C(=O)NCC(=O)N[C@@H](CC(N)=O)C(=O)NCC(=O)N[C@H](C(=O)N[C@@H](CC(C)C)C(=O)N[C@@H](Cc1ccc(O)cc1)C(=O)N[C@@H](C)C(=O)N[C@@H](CO)C(=O)N[C@H](C(=O)N[C@@H](CC(N)=O)C(N)=O)C(C)C)C(C)C) [peptide 12 (Pal-RKRNNSRLGNGVLYASVN-NH2)]
